Results: the supplement of paper PMC10598134
± gives the standard deviation.

Experiment: collision cross section of modified peptide (TIMS, N2, iRT-aligned); higher = larger / more extended gas-phase ion
Method in brief: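 Collision cross section was derived from the Mason-Schamp equation. Each value averages 1–3 technical replicates of the most abundant feature per charge state, measured on a timsTOF Pro/HT in dda-PASEF mode (nitrogen, ~2.4 mbar) after a 120-min nanoflow C18 gradient at 60 °C. Synthetic peptide pools (~100 fmol/µL in 2% acetonitrile/0.1% formic acid, iRT standard spiked 1:40) were identified with MaxQuant, and 1/K0 was calibrated with three reference ions and aligned run-wise to the median iRT peptide deviation.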

[1] = charge state: 2, modification: Dimethyl (K)
[2] = charge state: 2, modification: Formyl
[3] = charge state: 2, modification: Glutarylation
[4] = charge state: 2, modification: GlyGly (K)
[5] = charge state: 3, modification: GlyGly (K)
[6] = charge state: 2, modification: Methyl (K)
[7] = charge state: 3, modification: Methyl (K)
[8] = charge state: 2, modification: Propionyl
[9] = charge state: 2, modification: Succinyl
[10] = charge state: 3, modification: Trimethyl (K)
[11] = charge state: 2, modification: hydroxyisobutyryl
[12] = charge state: 2, modification: HexNAc (ST)
[13] = charge state: 3, modification: HexNAc (ST)
[14] = charge state: 2, modification: Citrullination (R)
[15] = charge state: 3, modification: Citrullination (R)
[16] = charge state: 3, modification: Methyl (R)

PSVGSQSNQAGQGKR [_PSVGSQSNQAGQGK(Dimethyl (K))R_]
collision cross section [1]: 425.54 ± 3 Å²
collision cross section (charge state: 3, modification: Dimethyl (K)): 470.05 ± 1.2 Å²

PSVGSQSNQAGQGKR [_PSVGSQSNQAGQGK(Formyl)R_]
collision cross section [2]: 402.96 ± 2 Å²
collision cross section (charge state: 3, modification: Formyl): 470.1 ± 1.8 Å²

PSVGSQSNQAGQGKR [_PSVGSQSNQAGQGK(Gluratylation)R_]
collision cross section [3]: 412.64 ± 1.7 Å²
collision cross section (charge state: 3, modification: Glutarylation): 479.06 ± 9.1 Å²

PSVGSQSNQAGQGKR [_PSVGSQSNQAGQGK(GlyGly (K))R_]
collision cross section [4]: 441.17 ± 1.6 Å²
collision cross section [5]: 461.66 ± 1.1 Å²

PSVGSQSNQAGQGKR [_PSVGSQSNQAGQGK(Malonyl)R_]
collision cross section (charge state: 2, modification: Malonyl): 406.87 ± 1.8 Å²
collision cross section (charge state: 3, modification: Malonyl): 446.38 Å²

PSVGSQSNQAGQGKR [_PSVGSQSNQAGQGK(Methyl (K))R_]
collision cross section [6]: 426.09 ± 2.3 Å²
collision cross section [7]: 471.73 ± 2.8 Å²

PSVGSQSNQAGQGKR [_PSVGSQSNQAGQGK(Propionyl)R_]
collision cross section [8]: 412.6 ± 0.64 Å²
collision cross section (charge state: 3, modification: Propionyl): 473.2 ± 1.4 Å²

PSVGSQSNQAGQGKR [_PSVGSQSNQAGQGK(Succinyl)R_]
collision cross section [9]: 415.39 ± 2 Å²
collision cross section (charge state: 3, modification: Succinyl): 455.72 ± 2.4 Å²

PSVGSQSNQAGQGKR [_PSVGSQSNQAGQGK(Trimethyl (K))R_]
collision cross section [10]: 463.16 ± 1.5 Å²

PSVGSQSNQAGQGKR [_PSVGSQSNQAGQGK(hydroxyisobutyryl)R_]
collision cross section [11]: 418.62 ± 0.53 Å²
collision cross section (charge state: 3, modification: hydroxyisobutyryl): 477.11 ± 9.7 Å²

PSVSTKLISK [_PSVSTK(Acetyl (K))LISK_]
collision cross section (charge state: 2, modification: Acetyl (K)): 351 ± 0.96 Å²

PSVSTKLISK [_PSVSTK(Biotin)LISK_]
collision cross section (charge state: 2, modification: Biotin): 375.49 Å²

PSVSTKLISK [_PSVSTK(Butyryl)LISK_]
collision cross section (charge state: 2, modification: Butyryl): 357.77 ± 1.8 Å²

PSVSTKLISK [_PSVSTK(Crotonyl)LISK_]
collision cross section (charge state: 2, modification: Crotonyl): 357.15 ± 0.8 Å²

PSVSTKLISK [_PSVSTK(Dimethyl (K))LISK_]
collision cross section [1]: 362.9 ± 0.28 Å²

PSVSTKLISK [_PSVSTK(Formyl)LISK_]
collision cross section [2]: 346.92 ± 1.1 Å²

PSVSTKLISK [_PSVSTK(Gluratylation)LISK_]
collision cross section [3]: 361.01 ± 0.71 Å²

PSVSTKLISK [_PSVSTK(GlyGly (K))LISK_]
collision cross section [4]: 370.29 ± 0.38 Å²
collision cross section [5]: 434.33 ± 3 Å²

PSVSTKLISK [_PSVSTK(Methyl (K))LISK_]
collision cross section [6]: 356.57 ± 0.35 Å²
collision cross section [7]: 424.71 ± 5.3 Å²

PSVSTKLISK [_PSVSTK(Propionyl)LISK_]
collision cross section [8]: 354.68 ± 0.33 Å²

PSVSTKLISK [_PSVSTK(Succinyl)LISK_]
collision cross section [9]: 355.43 ± 0.73 Å²

PSVSTKLISK [_PSVSTK(Trimethyl (K))LISK_]
collision cross section (charge state: 2, modification: Trimethyl (K)): 364.51 ± 0.61 Å²
collision cross section [10]: 427.1 ± 2.4 Å²

PSVSTKLISK [_PSVSTK(hydroxyisobutyryl)LISK_]
collision cross section [11]: 359.8 ± 1.9 Å²

QGNAVTLGDYYQGR [_QGNAVT(HexNAc (ST))LGDYYQGR_]
collision cross section [12]: 432.99 ± 0.62 Å²

QQETAAAETETR [_QQETAAAETET(HexNAc (ST))R_]
collision cross section [12]: 397.03 ± 0.67 Å²
collision cross section [13]: 483.44 ± 0.18 Å²

RFGGPVHHQAQR [_R(Citrullination (R))FGGPVHHQAQR_]
collision cross section [14]: 387.08 ± 0.89 Å²
collision cross section [15]: 477.19 ± 0.94 Å²

RFGGPVHHQAQR [_R(Methyl (R))FGGPVHHQAQR_]
collision cross section [16]: 496.52 ± 2.2 Å²

RFSPPSSSLQPGK [_RFS(HexNAc (ST))PPSSSLQPGK_]
collision cross section [12]: 414.91 ± 1 Å²
collision cross section [13]: 448.47 ± 9.4 Å²

RGATPPAPPR [_R(Citrullination (R))GATPPAPPR_]
collision cross section [14]: 332.88 ± 2.4 Å²

RGATPPAPPR [_R(Methyl (R))GATPPAPPR_]
collision cross section (charge state: 2, modification: Methyl (R)): 338.68 ± 2.1 Å²
collision cross section [16]: 463.88 ± 2.9 Å²

RGATPPAPPRR [_R(Citrullination (R))GATPPAPPRR_]
collision cross section [15]: 462.57 ± 1.3 Å²

RGATPPAPPRR [_R(Methyl (R))GATPPAPPRR_]
collision cross section [16]: 465.62 ± 0.37 Å²

RGFGFGGFAISAGK [_R(Citrullination (R))GFGFGGFAISAGK_]
collision cross section [14]: 391.71 ± 0.23 Å²

RGFGFGGFAISAGK [_R(Methyl (R))GFGFGGFAISAGK_]
collision cross section [16]: 488.52 ± 3.4 Å²
